The series in a line: soluble on expression in E. coli; label from the status in PepcDB or PDB records.
In the case of “MTPLSALTSNPAPSPPPKFALGKCPATAIHVVSVLRPNRQRFCYEKTDAGDLIPHKCLICQPILTEKHISPYYAVYSDLLEDFVLFGYNTMTGKMEQFIYAFKTDCFVEVNRPEIKYNPAFLVKGNVVVALNGPEGELVVIERDCRGLLSKESTSYGQFRTLPTAALRTLTLQDLERDRWDRAANSDEVKISSGNESFDRLYAEYQKNLPRFQVRQCLHLNKEFLCVYSKTSGDYTRLEYIDETGDFQKISCTLCTCEVTESNLIPLYVERNASELVIHVHNTENNQIEQYIYDVRTFGFVQVKRNLVYDPKKITSGLNLFMAENIDNRKVYMIMRGRDGRLQKETSGSGGFEKMQPVAVKTFQVQWVEMKTEFEKKKASTERVEPQHPVQTEGEDIMETVLAMVESFNCDLRKELGLTQDQEIPRKAPRVESAETEENIVKNLEKLQIAKDPEEPTTAASEGGNTYGYQELDDTMSEGLLEKEAESKHQDANEPEPVKNVTYEPDVAAMDKKKKRRELKSRLNKINAQIDELEKRRMERAGKKQVVSSSVPSEEAAQVEAPASPALAENTNQISNEETPKIDIFEGYNGSFLFGTNTSKEWIVEDIRNHMVGKLLKAFWPRIQNVEEMNGELFKKLIANARKCETEILEASNDRDEYYRLMQLTVDQILKKTLKKDQRATEHNHQQPTQSSDELAKNHEKN”, the “soluble on expression in E. coli” value is recorded as “not soluble”.
As for “GSLQDNSSYPDEPWRITEEQREYYVNQFRSLQPDPSSFISGSVAKNFFTKSKLSIPELSYIWELSDADCDGALTLPEFCAAFHLIVARKNGYPLPEGLPPTLQPEFIVTD”, the “soluble on expression in E. coli” value is “soluble”.
The result for “MGHHHHHHSHMIRINEIKLPLDHEEGALLDAITKKLGIPAEKVISFNVFRRGYDARKKTNIHLIYTLDIIVEGDETALLAKFANDPHVRQTPDMEYKFVAKAPENLTERPIVIGFGPCGLFAGLVLAQMGFNPIIVERGKEVRERTKDTFGFWRKRTLNPESNVQFGEGGAGTFSDGKLYSQVKDPNFYGRKVITEFVEAGAPEEILYVSKPHIGTFKLVTMIEKMRATIIELGGEIRFSTRVDGLHMEDGQITGVTLSNGEEIKSRHVVLAVGHSARDTFEMLHERGVYMEAKPFSVGFRIEHKQSMIDEARFGPNAGHPILGAADYKLVHHCKNGRTVYSFCMCPGGTVVAATSEEGRVVTNGMSQYSRAERNANSAIVVGISPEVDYPGDPLAGIRFQRELESNAYKLGGENYDAPAQKIGDFLKGRDPSQLGDVEPSFTPGIKLTDLSKALPPFAVEAIREAIPAFDRKIKGFASEDGLLTGVETRTSSPVCIKRGKDFQSVNLKGFYPAGEGAGYAGGILSAGIDGIKVAEAVARDIVAAMENA” reads “soluble”.
On to “MGSDKIHHHHHHVTAPAFLPVILAGGSGERFWPLSRKHRPKQFLTLDETGRSLLQATSDRLGRLSGSPEQVMVVTGTEYRTQVLEQLPDMPIEHLIVEPVARDTAPAVLYAALRVAQENPQAVMGVFPADHRITDAQAFGRVVRRAIEVAEITGGLVTLGVTPTFPATGYGYIQRGEQLLGGELPAFRVSRFTEKPDAETAQLFLADGRYTWNSGMFIWRVQAILAAFEQYQPDMYAQLSAAVRGSPRQVRAVFPELQKISIDYAILEKSDQVVVIPAEFGWDDLGDWNALERLLKGEGQNVAVGRHVGLDTDGAILYTTGGDGLIATIGLEDVVVVRTDEVTLVVRKDRTQDIKKVVQQLKSHPELERFA”, for which the “soluble on expression in E. coli” value is recorded as “not soluble”.
The result for “MSLSGIINNREYRQKVLKEIILELHNGKSVDEVRKRFQELIKGVSTKEISEMEAQLIKEGMKVEEIQRLCDVHAAVFKGSIDQIHHPEKEEGHPVSVLKKENEAVKNYIQSHLTPNLEEIKKSDSHSTRLKLMENISMLFDLDKHYSRKENLIFPYLEKYGITAPPKVMWGVDDEIREALKECKEVINSANKTPNEITEKVESTLKRIEEMIFKEESILLPMCIDTFSEDEWLDIESESDEIGYCLISPSEKWKPKRENVEEKEKSKLANENSEGYIKFDTGILRVNELSAILDTLPLDITFVDKDGTVKYFSGGSERIFARTRAVIGRKVQNCHPPASVHIVEKVVEDLKSGKKDHEDFWLHMGELYVFIRYYAVKDNKGEFIGVLEVTQNIKEIQEITGEKRLIEEGHHHHHH” reads “soluble”.
In the case of “MDTELMKLDVHVTAWSRTPSSSGFLNSVMISRDRDFEEFIINDRDGSVTSLGSYQNPSRGPDPLIFLDFRNFEPNYVYQLLLSQFHDHVLSEHIADQIGYTFGTCNSPTSTTDLDQESEEEE”, the “soluble on expression in E. coli” value was “soluble”.
The result for “MASYSDIVDSVRKCQFSPLYLLAGEEPFYIDELATLLETHVVPVDEWDFNRVILYGDKTSVADIANEARRFPMMGRRQLIVVREAQLVDNIDLLEAHYGTFPDTTILVIAYKKKPDKRKAFYTKAEKFGKVFVSETIPDYKMPDFILSAAAGKKLSVSPEVAYMLADYLGNDLEKLMNELDKLILITQDSRGVVTSEIVEQHIGVSKSFNNFELLRAIVNRETGKTFRIAHYFARNEKEHPIQATLPVLFNYFSNLMIVCYLPQKKPDAIMKALSIRNFQVRDYMTGLKMYSTRKVFDIIHEIRMTDARSKGVDTTGTFAGSGDLLRELLHFIFH” reads “not soluble”.
For “MGSDKIHHHHHHMLGENIYLQRTQIGMTQENLSDYLHLTKTTISKWENNQAKPDIDYLILMANLFDISLDDLVGYQKTLSDDQRNQLIKDLKIKANVLSERDFFQEVKELSKQFPNDFKTLLIMINMVLSNLTNLNDSEMKEWSLSTLNKIISKTVVESDLQTAIMFKTVVLFHNLEYDEVINLYQNSPYKLGEELLLANSFFAKVDVYRAKQVLQVEIYQQILLVCEYLLSLSTFEVEENKGDIFERLEHMIEAFQLNSLHPNTVIKCYYSLACHYSKSDDDKALGYLKQCFKSLKQLLQRFELHGDTFFYTIDDWLETIPTGIAPPTSQLQVIERVEDLFQNSQFKELSGHKEFQQMIQKLNDLKKDY”, the “soluble on expression in E. coli” value is recorded as “not soluble”.
The result for “MGSDKIHHHHHHMDITQLKMFQTVVECGTMAKASLQLHCVPSNITTRIKQLEEELGAPLFYREGKSLKLTPSGEIFLDYCHKILALCDEAKRSIHPDAPPSGPLKIGAIESSATTRLPNLLAKYHQRYPEVSIQIITGTWKQLLVDISQHKLDGAIVAGNIEFPMLNKLSIYQEDMVLIASHSLGEIRCQEDLIGKEIFMWTEGCPYRAALEEWLKLKNISLPITSITSYATIIGCVSAGSGVALVPKSIYEQYKNLAHIQSYKFEYLAFMQNHFFWHKNVSNHKARDMFIELIKSEFCL” reads “not soluble”; that for “MRPPRPPRPPSPQRSAELRRRFAQEARSERPDLATLCLLVGAEADGTLDEAGLDAAQVELDRLAGELPFRPGTPRAWAVALRDLLGERYGFHGVAADYQRLESSLLHEVVRRRRGLPILLSVVWLEVARRAGAPVYGVALPGHFVVGFGGESAAASGPGSAPLGERVLVDPYDGGRLLSGTDAEALVAGATGAELRASMLEPAAPLDVVARVLNNIRAWAAARPEQSAVGLWAVELALLLPAHAARLRYERAVLLVQRGEFAAGAGELEAYAEVVEAVDEAVAEEVRGEARTARAMLN”, “not soluble”.
Turning to “MGSDKIHHHHHHMRKLYILGMILGMYATFSACNDEWKDELYTQMLSFKAPLGDNGLSEIYVRYQPDGTGIYQLPVIVSGSKSNSRNIDAKIAVDEDTLRILNQEKFPVGRQDLWYVPLAEQHYSFESNICHIPAGENIQLYPIHFNFNGLELDEKYVLPLTIEEDPSYVQNKYKGRYKALLGVNLFNDYSGTYNTTLMNIYIEGTTTDPAKVDTRLARVVDENTIFFYAGSTWVEDENRSRYKVFVEFEEGTEDEEGTIKGKLRLYGDEGEPGINIRPLGECKYEKRIIQHETIKYMERHLTTLELSYKYTDVTSNPDYPITYEVKGSMTMERQINPLIPDEDQAIEW”, the “soluble on expression in E. coli” value is “not soluble”.

The record behind these values is the DeepSol protein solubility set.
